Columns and labels:
[1] = biological target: Trichomonas vaginalis riboside hydrolase (TvRH), His6 tag removed (Trichomonas vaginalis) (UniProt A2FTT0); experiment: SEC
purified protein [2] = substrate: O=c1[nH]c(=O)n([C@@H]2O[C@H](CO)[C@@H](O)[C@H]2O)cc1F; experiment: purified protein; settings: Ca2+
purified protein [3] = substrate: Nc1ccn([C@@H]2O[C@H](CO)[C@@H](O)[C@H]2O)c(=O)n1; experiment: purified protein; settings: Ca2+
purified protein [4] = substrate: O=[N+]([O-])c1ccc(O[C@@H]2O[C@H](CO)[C@@H](O)[C@H]2O)cc1; experiment: purified protein; settings: Ca2+
purified protein [5] = substrate: O=c1[nH]c(=O)n([C@@H]2O[C@H](CO)[C@@H](O)[C@H]2O)cc1Br; experiment: purified protein; settings: Ca2+
purified protein [6] = substrate: O=c1ccn([C@@H]2O[C@H](CO)[C@@H](O)[C@H]2O)c(=O)[nH]1; experiment: purified protein; settings: Ca2+ active site (modeled only)
purified protein [7] = substrate: NC(=O)c1ccc[n+]([C@@H]2O[C@H](CO)[C@@H](O)[C@H]2O)c1; experiment: purified protein; settings: Ca2+ active site (modeled only); pH 6.5; 37.0 °C
purified protein [8] = substrate: O=c1[nH]c(=O)n([C@@H]2O[C@H](CO)[C@@H](O)[C@H]2O)cc1Cl; experiment: purified protein; settings: Ca2+

Molecule: Trichomonas vaginalis riboside hydrolase (TvRH), His6 tag removed (from UniProt A2FTT0 1-347) (enzyme)
- stoichiometry N [1]: 4

B1: TvRH (riboside hydrolase, TVAG_092730) (Trichomonas vaginalis G3) (protein)
chain: MSIKCALDCDPGHDDLAMIMLAVYSPKLDVQYISTTHGNQTVNKTYQNARRTLNLIKRADKIPVYRGYSKPLTRESVACPEIHGESGLGGVDWSEIDRTMPRNPALDILGYKDESELRPDDFFKHLHRLVSAAEDKFDIISTGSETNIAQYLLAYPEDAKKIRMTTMAGNFMIVGNIMPFAEFNVLIDPEAISNILQSGVDYTFAAPLDITHTVLVTEKVINDIKAATEPYSPKFTEMIIKLLFFFKDTYRDVFGFIDPPLHDPVAAFHLIAPEWFEHVRCHVDIETKGEYTYGCCCTNLILKKKDPTKIVKPDNATVCLKLKEGGHDAFWNQMITVWGEIAKEIGK
- Km (purified protein [2]): 17 µM
- kcat (purified protein [2]): 12.6 ± 0.6 s⁻¹
- kcat/Km (purified protein [2]): 770000 M⁻¹ s⁻¹
- Km (purified protein [3]): 33 µM
- kcat (purified protein [3]): 0.19 ± 0.003 s⁻¹
- kcat/Km (purified protein [3]): 5700 M⁻¹ s⁻¹
- Km (purified protein [4]): 13 µM
- kcat (purified protein [4]): 391 ± 2 s⁻¹
- kcat/Km (purified protein [4]): 3e+07 M⁻¹ s⁻¹
- Km (purified protein [5]): 20 µM
- kcat (purified protein [5]): 2.1 ± 0.1 s⁻¹
- kcat/Km (purified protein [5]): 100000 M⁻¹ s⁻¹
- Km (purified protein [6]): 39 µM
- kcat (purified protein [6]): 9.3 ± 0.27 s⁻¹
- kcat/Km (purified protein [6]): 240000 M⁻¹ s⁻¹
- Km (purified protein [7]): 99.1 µM
- kcat (purified protein [7]): 10.9 ± 0.24 s⁻¹
- kcat/Km (purified protein [7]): 110000 M⁻¹ s⁻¹
- Km (purified protein [8]): 11 µM
- kcat (purified protein [8]): 2.3 ± 0.1 s⁻¹
- kcat/Km (purified protein [8]): 210000 M⁻¹ s⁻¹

Reference: PMC10474468
